Earlier results as cited in US8633160B2, “Small molecule inhibitors of PDZ interactions” (Nono Inc., priority 2005, dated 2014).

What was measured:
N-type calcium channel = N-type calcium channel (Homo sapiens, UniProt Q00975); settings: data of U.S. Provisional Application No. 60/904,507; cited from earlier work
[1] = test system: middle cerebral artery occlusion (MCAO) model of stroke; settings: rat, previously tested; cited from earlier work

Sequence of N-type calcium channel (Q00975 whole entry): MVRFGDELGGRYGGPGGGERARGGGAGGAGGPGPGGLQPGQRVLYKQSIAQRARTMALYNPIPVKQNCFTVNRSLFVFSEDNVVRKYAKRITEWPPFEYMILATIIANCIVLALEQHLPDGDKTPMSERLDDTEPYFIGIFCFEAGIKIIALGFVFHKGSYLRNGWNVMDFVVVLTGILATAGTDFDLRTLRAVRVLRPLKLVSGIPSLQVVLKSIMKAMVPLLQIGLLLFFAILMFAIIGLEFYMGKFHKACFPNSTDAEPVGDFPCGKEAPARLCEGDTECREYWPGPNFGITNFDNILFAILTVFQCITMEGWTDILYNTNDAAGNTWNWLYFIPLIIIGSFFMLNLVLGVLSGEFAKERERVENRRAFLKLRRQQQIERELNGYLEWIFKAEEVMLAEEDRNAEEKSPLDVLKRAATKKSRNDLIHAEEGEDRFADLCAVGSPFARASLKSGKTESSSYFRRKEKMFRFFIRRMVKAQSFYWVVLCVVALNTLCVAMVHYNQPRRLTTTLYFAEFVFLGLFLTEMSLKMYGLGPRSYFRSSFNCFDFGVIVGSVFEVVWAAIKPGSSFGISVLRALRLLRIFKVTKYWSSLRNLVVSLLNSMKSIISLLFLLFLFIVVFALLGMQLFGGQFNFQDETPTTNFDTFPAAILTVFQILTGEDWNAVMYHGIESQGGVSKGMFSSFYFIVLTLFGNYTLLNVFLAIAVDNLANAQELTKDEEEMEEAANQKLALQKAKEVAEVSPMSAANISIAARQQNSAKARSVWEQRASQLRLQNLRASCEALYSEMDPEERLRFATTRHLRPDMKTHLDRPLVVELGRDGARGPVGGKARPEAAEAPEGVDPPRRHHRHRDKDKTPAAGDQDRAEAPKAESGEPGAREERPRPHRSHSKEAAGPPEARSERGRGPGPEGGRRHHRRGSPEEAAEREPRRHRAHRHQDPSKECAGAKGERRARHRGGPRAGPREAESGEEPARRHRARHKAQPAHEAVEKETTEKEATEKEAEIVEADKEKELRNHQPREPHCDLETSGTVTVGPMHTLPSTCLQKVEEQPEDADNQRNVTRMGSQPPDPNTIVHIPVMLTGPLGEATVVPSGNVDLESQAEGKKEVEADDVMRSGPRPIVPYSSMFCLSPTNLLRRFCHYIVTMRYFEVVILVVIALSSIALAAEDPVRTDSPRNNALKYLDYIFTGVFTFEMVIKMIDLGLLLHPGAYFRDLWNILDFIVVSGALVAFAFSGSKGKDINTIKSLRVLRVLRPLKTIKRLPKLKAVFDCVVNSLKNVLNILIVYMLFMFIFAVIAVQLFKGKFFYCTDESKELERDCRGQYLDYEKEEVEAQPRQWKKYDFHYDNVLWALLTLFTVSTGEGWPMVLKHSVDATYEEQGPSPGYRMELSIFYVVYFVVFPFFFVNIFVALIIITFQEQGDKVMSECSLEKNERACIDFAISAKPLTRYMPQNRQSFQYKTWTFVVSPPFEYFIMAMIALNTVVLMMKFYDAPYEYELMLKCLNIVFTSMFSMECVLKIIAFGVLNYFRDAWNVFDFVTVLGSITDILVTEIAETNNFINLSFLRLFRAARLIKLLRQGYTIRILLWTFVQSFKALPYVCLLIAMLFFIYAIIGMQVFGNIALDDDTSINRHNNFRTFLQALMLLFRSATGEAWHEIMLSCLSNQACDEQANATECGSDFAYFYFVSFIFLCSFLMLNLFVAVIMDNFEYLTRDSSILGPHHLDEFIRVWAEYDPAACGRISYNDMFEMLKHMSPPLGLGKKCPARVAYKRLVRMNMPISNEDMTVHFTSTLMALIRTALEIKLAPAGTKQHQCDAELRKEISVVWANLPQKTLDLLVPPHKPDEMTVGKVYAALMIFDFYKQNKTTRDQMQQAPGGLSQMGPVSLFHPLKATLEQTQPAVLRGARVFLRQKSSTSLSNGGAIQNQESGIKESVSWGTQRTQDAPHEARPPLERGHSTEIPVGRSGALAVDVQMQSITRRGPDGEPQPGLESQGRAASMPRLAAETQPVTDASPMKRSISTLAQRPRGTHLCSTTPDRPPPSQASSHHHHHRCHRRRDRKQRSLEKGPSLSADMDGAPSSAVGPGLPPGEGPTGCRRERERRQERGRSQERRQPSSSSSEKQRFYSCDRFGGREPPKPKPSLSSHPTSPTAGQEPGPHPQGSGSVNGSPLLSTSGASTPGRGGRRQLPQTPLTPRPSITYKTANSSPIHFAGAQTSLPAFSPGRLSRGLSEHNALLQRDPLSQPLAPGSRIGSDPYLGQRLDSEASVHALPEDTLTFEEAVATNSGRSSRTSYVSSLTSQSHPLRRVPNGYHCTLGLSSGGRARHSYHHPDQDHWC

Row | Sequence | Inhibition of the N-type calcium channel (N-type calcium channel) | Neuroprotection (infarct size) [1]
1 | YGRKKRRQRRR [Tat] | sufficient to induce the observed inhibition | –
2 | YGRKKRRQRRRKLSSIESDV [Tat-NR2B9c, known neuroprotective peptide] | – | neuroprotective as seen by a reduced infarct size
